# Patent US20260102468A1, “COMPOSITIONS AND METHODS FOR MARCO INHIBITION AND IMPROVED DRUG DELIVERY” (BOARD OF REGENTS, THE UNIVERSITY OF TEXAS SYSTEM, priority 2022, published 2026)
# T1: MARCO (Mus musculus, UniProt Q60754)
# T1 construct: secretion signal peptide (N); host or cells: Expi293 cells
# T1 sequence (Q60754 with tags, fused parts or gaps): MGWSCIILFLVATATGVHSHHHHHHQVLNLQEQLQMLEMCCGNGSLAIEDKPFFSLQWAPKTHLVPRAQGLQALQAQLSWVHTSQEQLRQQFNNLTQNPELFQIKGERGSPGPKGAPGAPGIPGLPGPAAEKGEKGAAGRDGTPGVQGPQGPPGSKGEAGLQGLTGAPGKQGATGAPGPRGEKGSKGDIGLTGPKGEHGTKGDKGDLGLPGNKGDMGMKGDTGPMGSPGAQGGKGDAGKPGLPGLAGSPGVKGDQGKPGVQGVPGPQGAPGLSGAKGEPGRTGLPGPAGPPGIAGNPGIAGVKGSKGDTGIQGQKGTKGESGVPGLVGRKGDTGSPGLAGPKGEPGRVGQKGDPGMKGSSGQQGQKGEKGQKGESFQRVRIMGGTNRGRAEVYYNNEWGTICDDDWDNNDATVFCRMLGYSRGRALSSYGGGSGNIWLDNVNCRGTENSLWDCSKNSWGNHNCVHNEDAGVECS
# B1: SRCR: recombinant mouse MARCO protein scavenger receptor cysteine-rich (SRCR) domain, SEQ ID NO: 2 (protein)
# chain: MGWSCIILFLVATATGVHSHHHHHHQRVRIMGGTNRGRAEVYYNNEWGTICDDDWDNNDATVFCRMLGYSRGRALSSYGGGSGNIWLDNVNCRGTENSLWDCSKNSWGNHNCVHNEDAGVECS
# modifications: MARCO SRCR
# Tests used:
# [1] = tested on: liver CD11b+ cells; test: Doxorubicin uptake by liver CD11b+ cells in treated mice (flow cytometry); format: in vivo; conditions: flow cytometry of digested liver cells
# [2] = biological target: T1, MARCO; test: Binding of nanoparticles with additional MARCO after saturation; conditions: pre-incubation with saturation doses of SRCR or ECD
# Protocol: (§1) Consistent with a previous report (Brannstrom, A., et al. 2002. Biochem Biophys Res Commun 290, 1462-1469), the SRCR^R→A and SRCR^Δ mutations of MARCO were not expressed. […] Next, the binding capacity of MARCO to particles and nanomedicine was tested. Centrifugal filters were used to isolate unbound MARCO after incubating the SRCR (0.1 mg/mL) with different concentrations of nanoparticles. The MARCO recombinant proteins (0.1 mg/mL SRCR, 0.5 mg/mL ECD, or 0.4 mg/mL ECD^Δ) were incubated with nab-paclitaxel (5 mg/mL, paclitaxel concentration). After 15 min at room temperature with gentle shaking, the mixture was further incubated with the Dynabeads His-Tag isolation and Pulldown (ThermoFisher, Cat. #10103D). After magnetic separation and three washes with PBS, the beads were boiled in western blot sample buffer for subsequent western blotting. Primary antibodies used for western blots were albumin, CST, Cat. #4929, 1:1000; and His-Tag, CST, Cat. #2365, 1:1000. To test the binding capacity of MARCO, 0.1 mg/mL of SRCR was incubated for 15 min at room temperature with different concentrations of nab-paclitaxel or nanoparticles. The mixture was centrifuged through a 30-kDa cutoff filter (Millipore, UFC903096) at 1000 g for 30 minutes. The unbound SRCR in the lower part of the tube was examined by western blotting. […]
# [3] = tested on: E0771 tumor cells; test: E0771 breast cancer mouse model, ABRAXANE plus MARCO blockade; format: in vivo, mice
# Protocol: For this study, one million E0771 tumor cells were implanted in young female C57BL6 mice (aged 6 weeks old). Tumor growth was measured every 3 days with calipers. Tumor volume was calculated as: Volume=0.5×Length×Width^2. When tumor volume reached around 60-80 mm^3 the treatment was started. The mice were treated with paclitaxel-protein particles (ABRAXANE®, 20 mg/kg) or ABRAXANE® plus MARCO blockade agents (anti-MARCO antibody, 2.5 mg/kg; ECD (extracellular domain), MARCO protein extracellular domain, 1.5 mg/kg; SRCR, or MARCO protein scavenger receptor cysteine-rich (SRCR) domain, 0.3 mg/kg). IgG plus 0.9% sodium chloride was used as a control.
# One-way analysis of variance with post hoc testing was used to compare tumor volumes at day 18 after treatment. Error bars are means±S.E.M. We used the same experimental setup with the breast E0771 tumor model and treatment doses as the young animals (ABRAXANE®, 20 mg/kg, and/or MARCO protein scavenger receptor cysteine-rich (SRCR) domain, 0.3 mg/kg).
# To determine the specificity of the effects of recombinant MARCO protein blockade, additional control experiments in which mouse serum protein was used as an irrelevant protein control and the ECD^Δ as the minimal-binding MARCO control were performed.
# [4] = set-up: species or system mice; conditions: mouse, in vivo, iv
# Protocol: Anti-MARCO, monoclonal MARCO antibody, clone ED31, 2.5 mg/kg; rMARCO, recombinant MARCO protein SRCR domain, 0.3 mg/kg; NP, 100 nm nanoparticles, 10^11 particles injected through tail vain. n=3 mice for each treatment group at each time point. One way ANOVA with correction for multiple comparison was used to compare the difference between NP and other treatment groups. Error bars are means±SD.
# Blockade of MARCO-nanoparticle interaction decreased nanoparticle uptake by liver in mice. Two strategies for blocking the MARCO-nanoparticle interaction were tested: with antibody to directly block the MARCO receptors on the cell or with recombinant MARCO protein to saturate the MARCO binding capacity of the particles. Young female C57BL6 background mice (aged 6 weeks) were intravenously injected with fluorescence-labelled 100 nm PEGylated polystyrene nanoparticles (NP, 10^11 particles per 20 g of body weight) with or without recombinant MARCO protein (SRCR domain, 0.3 mg/kg). Liver IVIS imaging was done 4 h after the injection. […] Unpaired t-test.
# [5] = tested on: nab-paclitaxel; test: Pull-down of nab-paclitaxel by recombinant MARCO proteins (Western blot of albumin); format: binding; conditions: 0.1 mg/mL SRCR, 0.5 mg/mL ECD or 0.4 mg/mL ECD^Δ with nab-paclitaxel 5 mg/mL, His-tag pulldown
# Protocol: as §1
# [6] = tested on: E0771 tumor cells; test: E0771 breast cancer mouse model, DOXIL plus MARCO blockade; format: in vivo, mice; conditions: DOXIL 2 mg/kg + SRCR 0.3 mg/kg
# Protocol: For this study, one million E0771 tumor cells were implanted in young female C57BL6 mice (aged 6 weeks old). Tumor growth was measured every 3 days with calipers. Tumor volume was calculated as: Volume=0.5×Length× Width^2. When tumor volume reached around 60-80 mm^3 the treatment was started. The mice were treated with Doxil (DOXIL®, 2 mg/kg) or DOXIL® plus MARCO blockade agent (MARCO recombinant protein, SRCR domain, 0.3 mg/kg). 0.9% sodium chloride was used as a control. All agents were injected intravenously 2 times each week for a total of 5 treatments. FIGS. 9A and 33A-33B show growth curves for the E0771 mice treated by DOXIL® or DOXIL® plus MARCO blockade. n=5-6 mice in each treatment arm. Un-paired t-test was used to compare tumor volumes at day 18. […] FIGS. 33C-33D show survival curves of young and old mice bearing E0771 tumors in the groups treated with Doxil (DOXIL®, 2 mg/kg) or DOXIL® plus MARCO blockade agent (MARCO recombinant protein, SRCR domain, 0.3 mg/kg).
# Control vs. MARCO or Doxil vs. DoxM were compared with unpaired/tests. Error bars are means±S.E.M. The present inventors used the same experimental setup with the breast E0771 tumor model and treatment doses as the young animals (DOXIL®, 2 mg/kg, and/or MARCO protein scavenger receptor cysteine-rich (SRCR) domain, 0.3 mg/kg).
# [7] = tested on: macrophages; test: Nanoparticle uptake (phagocytosis) by macrophages after MARCO knockdown or blockade; format: cell-based, mouse; conditions: with or without incubation with recombinant MARCO protein
# Protocol: The effect of MARCO expression on nanoparticle uptake by macrophages in vitro was tested. […] On day 5 following macrophage collection and culture, the siRNAs were mixed with the DharmaFECT 4 transfection reagent (Horizon, T-2004-02) at a final concentration of 100 nM, after which the cells were incubated with the siRNA for 48 hours. The siRNAs used in this study were as follows: Control siRNA (Cell Signaling Technology, 6568S) and Marco siRNA (Millipore Sigma, SASI_Mm01_00200135, SASI_Mm02_00319301).
# Scale bar=50 μm. White arrows indicate cells that have taken up nanoparticles. […] Unpaired t-test.
# For the nanoparticle phagocytosis assay, cells were plated in Costar 24-well Clear Flat Bottom Ultra-Low Attachment Multiple Well Plates (Corning, 3473) at a density of 10^5 cells/well. Nanoparticles or drug were added to the wells at the following concentrations: nanoparticles, 10^2-10^4/cell; Abraxane, 1 μg/mL; doxorubicin (Doxil), 20 μg/mL. Plates were then transferred to a cell culture incubator, and 2 hours later the cells were collected and washed followed by fixation with 4% paraformaldehyde. The cells were stained with fluorescence-labeled antibodies and analyzed by flow cytometry. The mean fluorescence intensity or the percentage of fluorescence-positive cells was used to compare the uptake of nanoparticles or drug.
binding of nanoparticles with additional MARCO after saturation with recombinant MARCO [2],Molecule,"doxorubicin uptake by liver CD11b+ cells, young versus old mice [1]","treatment outcome of ABRAXANE, older mice ([3]; C57BL6 aged 50 weeks, ABRAXANE 20 mg/kg, SRCR 0.3 mg/kg or anti-MARCO antibody, day 18)","efficacy of combination treatment at increased SRCR concentration ([3]; nab-paclitaxel 20 mg/kg, SRCR 3 mg/kg vs 0.3 mg/kg)","therapeutic effect of ABRAXANE (tumor growth inhibition), young mice ([3]; young (6 weeks) female C57BL6, ABRAXANE 20 mg/kg i.v., antibody 2.5, ECD 1.5, SRCR 0.3 mg/kg, day 18)",number of nanoparticles in the liver [4],binding with nab-paclitaxel [5],"treatment outcome of Doxil, older mice ([6]; C57BL6 aged 50 weeks)","relative doxorubicin concentrations in tumors ([6]; Doxil fluorescence intensity per mg of tissue, IVIS)",nanoparticle uptake by macrophages with recombinant MARCO protein [7]
,COc1cccc2c1C(=O)c1c(O)c3c(c(O)c1C2=O)C[C@@](O)(C(=O)CO)C[C@@H]3O[C@H]1C[C@H](N)[C@H](O)[C@H](C)O1 [doxorubicin],took up more doxorubicin than did the older mice,,,,,,,,
could not bind with additional MARCO,B1,,does not enhance the treatment outcome of abraxane in older mice,nor did further increasing the concentration of SRCR enhance the efficacy of combination treatment,enhanced the inhibition of tumor growth in young mice treated with nab-paclitaxel,significantly reduced the number of nanoparticles in the liver,could strongly bind with nab-paclitaxel,does not enhance the treatment outcome of Doxil in older mice,increased the relative doxorubicin concentrations in tumors,decreased nanoparticle uptake by macrophages
